For series [1], the target named is T1, RAD51 (UniProt Q06609 1-339). Briefly: stopped-flow fluorescence (Hill); Kd,1; ATP, Mg2+; EMSA: 20 mM Tris-HCl pH 7.5, 2 mM MgCl2, 2 mM ATP, 37 C, 20 nM DNA, glutaraldehyde fixation; stopped-flow: 25 mM Tris-HCl pH 7.5, 5 mM MgCl2, 50 mM KCl, 2 mM ATP, 0.5 mM EDTA, 10% glycerol, 37 C; BLI: 50 mM Tris-HCl pH 7.5, 2 mM ATP, 50 mM KCl, 5 mM MgCl2, 0.05% Tween 20, room temperature. The note with it: protein: recombinant; chain copies: 10; label: Cy3 at 3' or 5'.

Series [2] concerns the target T2, BCDX2 complex (human, UniProt O15315;O43502;O75771;O43543 1-384;1-376;1-328;1-280).
T2 sequence 1: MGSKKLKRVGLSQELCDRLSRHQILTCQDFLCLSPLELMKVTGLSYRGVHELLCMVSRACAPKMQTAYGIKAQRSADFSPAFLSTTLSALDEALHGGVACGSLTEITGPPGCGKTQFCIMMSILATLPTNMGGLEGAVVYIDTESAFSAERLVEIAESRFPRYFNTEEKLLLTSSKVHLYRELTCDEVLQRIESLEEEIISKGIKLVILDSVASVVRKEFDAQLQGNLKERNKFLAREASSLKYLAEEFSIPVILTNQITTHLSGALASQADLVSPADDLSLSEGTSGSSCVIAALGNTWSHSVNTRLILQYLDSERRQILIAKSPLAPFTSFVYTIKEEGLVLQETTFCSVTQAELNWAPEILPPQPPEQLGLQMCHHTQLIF
T2 sequence 2: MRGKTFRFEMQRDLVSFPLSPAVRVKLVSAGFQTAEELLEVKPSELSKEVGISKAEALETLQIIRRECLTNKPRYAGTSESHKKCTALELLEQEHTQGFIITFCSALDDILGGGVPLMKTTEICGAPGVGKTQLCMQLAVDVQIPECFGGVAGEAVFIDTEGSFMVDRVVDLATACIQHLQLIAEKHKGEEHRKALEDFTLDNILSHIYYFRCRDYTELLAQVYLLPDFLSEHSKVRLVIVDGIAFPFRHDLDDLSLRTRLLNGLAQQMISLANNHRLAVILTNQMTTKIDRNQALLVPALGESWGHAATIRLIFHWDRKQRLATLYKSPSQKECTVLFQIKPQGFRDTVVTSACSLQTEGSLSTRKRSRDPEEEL
T2 sequence 3: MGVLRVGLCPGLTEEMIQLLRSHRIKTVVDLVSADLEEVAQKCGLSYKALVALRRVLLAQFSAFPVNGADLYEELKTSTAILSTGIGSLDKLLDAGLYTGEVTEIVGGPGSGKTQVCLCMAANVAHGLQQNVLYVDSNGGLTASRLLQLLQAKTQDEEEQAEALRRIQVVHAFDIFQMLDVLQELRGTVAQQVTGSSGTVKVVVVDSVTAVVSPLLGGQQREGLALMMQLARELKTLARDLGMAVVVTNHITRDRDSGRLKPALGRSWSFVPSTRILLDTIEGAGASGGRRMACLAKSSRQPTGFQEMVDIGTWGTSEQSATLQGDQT
T2 sequence 4: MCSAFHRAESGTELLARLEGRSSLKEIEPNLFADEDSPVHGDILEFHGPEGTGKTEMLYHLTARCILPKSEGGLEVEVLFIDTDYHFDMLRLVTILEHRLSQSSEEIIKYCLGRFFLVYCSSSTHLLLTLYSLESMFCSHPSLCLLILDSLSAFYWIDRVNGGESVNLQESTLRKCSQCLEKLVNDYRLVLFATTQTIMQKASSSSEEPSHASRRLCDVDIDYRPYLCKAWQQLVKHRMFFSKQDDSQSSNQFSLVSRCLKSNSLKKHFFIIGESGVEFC
Nature of the series: stopped-flow fluorescence (total amplitude); Kd,net two-step; ATP, Mg2+; EMSA: 20 mM Tris-HCl pH 7.5, 2 mM MgCl2, 2 mM ATP, 37 C, 20 nM DNA, glutaraldehyde fixation; stopped-flow: 25 mM Tris-HCl pH 7.5, 5 mM MgCl2, 50 mM KCl, 2 mM ATP, 0.5 mM EDTA, 10% glycerol, 37 C; BLI: 50 mM Tris-HCl pH 7.5, 2 mM ATP, 50 mM KCl, 5 mM MgCl2, 0.05% Tween 20, room temperature. The settings on record: protein: recombinant; tags: Strep-tag and His-tag (XRCC2 N-terminal His); copies: 1;1;1;1; label: Cy3 at 3' or 5'.

Series [3] deals with T2, BCDX2 complex. Briefly: stopped-flow fluorescence (amplitude, A1); Kd,1 initial complex; ATP, Mg2+; EMSA: 20 mM Tris-HCl pH 7.5, 2 mM MgCl2, 2 mM ATP, 37 C, 20 nM DNA, glutaraldehyde fixation; stopped-flow: 25 mM Tris-HCl pH 7.5, 5 mM MgCl2, 50 mM KCl, 2 mM ATP, 0.5 mM EDTA, 10% glycerol, 37 C; BLI: 50 mM Tris-HCl pH 7.5, 2 mM ATP, 50 mM KCl, 5 mM MgCl2, 0.05% Tween 20, room temperature. The settings on record: protein: recombinant; tags: Strep-tag and His-tag (XRCC2 N-terminal His); copies: 1;1;1;1; label: Cy3 at 3' or 5'.

Series [4] concerns the target T1, RAD51. Nature of the series: stopped-flow fluorescence (global fit); RAD51 without BCDX2; ATP, Mg2+; EMSA: 20 mM Tris-HCl pH 7.5, 2 mM MgCl2, 2 mM ATP, 37 C, 20 nM DNA, glutaraldehyde fixation; stopped-flow: 25 mM Tris-HCl pH 7.5, 5 mM MgCl2, 50 mM KCl, 2 mM ATP, 0.5 mM EDTA, 10% glycerol, 37 C; BLI: 50 mM Tris-HCl pH 7.5, 2 mM ATP, 50 mM KCl, 5 mM MgCl2, 0.05% Tween 20, room temperature. The note with it: protein: recombinant; chain copies: 10; label: Cy3 at 3' or 5'.

Series [5] deals with T2, BCDX2 complex. Nature of the series: stopped-flow fluorescence (global fit); initial complex k1/k-1; 2 mM ATP, 5 mM Mg2+; EMSA: 20 mM Tris-HCl pH 7.5, 2 mM MgCl2, 2 mM ATP, 37 C, 20 nM DNA, glutaraldehyde fixation; stopped-flow: 25 mM Tris-HCl pH 7.5, 5 mM MgCl2, 50 mM KCl, 2 mM ATP, 0.5 mM EDTA, 10% glycerol, 37 C; BLI: 50 mM Tris-HCl pH 7.5, 2 mM ATP, 50 mM KCl, 5 mM MgCl2, 0.05% Tween 20, room temperature. The note with it: protein: recombinant; tags: Strep-tag and His-tag (XRCC2 N-terminal His); copies: 1;1;1;1; label: Cy3 at 3' or 5'.

A further series deals with RAD51;BCDX2 complex (human?;human, UniProt Q06609;O15315;O43502;O75771;O43543 1-339;1-384;1-376;1-328;1-280, |). Briefly: stopped-flow fluorescence (global fit); RAD51 binding in presence of BCDX2; ATP, Mg2+; EMSA: 20 mM Tris-HCl pH 7.5, 2 mM MgCl2, 2 mM ATP, 37 C, 20 nM DNA, glutaraldehyde fixation; stopped-flow: 25 mM Tris-HCl pH 7.5, 5 mM MgCl2, 50 mM KCl, 2 mM ATP, 0.5 mM EDTA, 10% glycerol, 37 C; BLI: 50 mM Tris-HCl pH 7.5, 2 mM ATP, 50 mM KCl, 5 mM MgCl2, 0.05% Tween 20, room temperature. The settings on record: protein: recombinant;recombinant; tags: ;Strep-tag and His-tag (XRCC2 N-terminal His); copies: 1;1;1;1;1; label: Cy3 at 3' or 5'.

Series [6] has as its target T1, RAD51. Nature of the series: stopped-flow fluorescence (global fit); initial weak binding step; 2 mM ATP, 5 mM Mg2+; EMSA: 20 mM Tris-HCl pH 7.5, 2 mM MgCl2, 2 mM ATP, 37 C, 20 nM DNA, glutaraldehyde fixation; stopped-flow: 25 mM Tris-HCl pH 7.5, 5 mM MgCl2, 50 mM KCl, 2 mM ATP, 0.5 mM EDTA, 10% glycerol, 37 C; BLI: 50 mM Tris-HCl pH 7.5, 2 mM ATP, 50 mM KCl, 5 mM MgCl2, 0.05% Tween 20, room temperature. The settings on record: protein: recombinant; chain copies: 10; label: Cy3 at 3' or 5'.

T1 sequence (Q06609 whole entry): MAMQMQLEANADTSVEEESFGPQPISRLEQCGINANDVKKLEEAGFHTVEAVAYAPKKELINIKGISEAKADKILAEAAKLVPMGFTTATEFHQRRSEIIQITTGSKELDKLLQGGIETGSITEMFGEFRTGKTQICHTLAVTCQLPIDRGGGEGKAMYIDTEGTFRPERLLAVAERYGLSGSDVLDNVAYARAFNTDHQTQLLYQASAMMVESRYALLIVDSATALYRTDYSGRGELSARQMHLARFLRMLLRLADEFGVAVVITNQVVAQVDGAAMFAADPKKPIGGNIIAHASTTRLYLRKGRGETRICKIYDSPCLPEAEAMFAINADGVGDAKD
Chain of RAD51;BCDX2 complex (Q06609 whole entry, one chain of several): as the sequence (Q06609 whole entry) above

For the molecule TTTTTTTTTTTTTTTTTTTTTTTTTTTTTTTTTTTTTTTTTTT (ssDNA) [Cy3-dT43], the Kd in the series with RAD51 [1] stood at 1600 ± 200 nM; with BCDX2 complex [2], 220 ± 20 nM; in the series with BCDX2 complex [3], 310 ± 50 nM. In addition, the Ka with RAD51 [4] was determined as 0.026 nM⁻¹; with BCDX2 complex [5], 3.1 µM⁻¹; with RAD51;BCDX2 complex, 0.064 nM⁻¹; with RAD51 [6], 0.09 µM⁻¹.
